Protein stability index data for 25 sequences are collected here from the supplement of paper PMC9732359.

The nature of this series: protein stability index of a GFP-peptide fusion (yeast GPS) (PSI 1-4); higher = more stable; sorted into four equal gates, so the index is relative within each strain. The gist of the method:
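The protein stability index of a peptide was calculated by multiplying its read frequency in each gate by that gate's number and adding the products. The peptides were tiled 17-residue stretches of yeast proteins, fused downstream of GFP on a Cherry-expressing plasmid and carried in yeast as a pooled library. Mid-log cultures in leucine-free medium were sorted into four equal gates by GFP/Cherry ratio, and each gate's plasmids were PCR-amplified and Illumina-sequenced.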

± gives the uncertainty stated by the source.

Regarding REDEFGSIPSLTTQFVT [YDL088C/ASM4], the protein stability index runs as follows: (doa10∆) 3 ± 0.066; (pdr5∆) 2.92 ± 0.058; (san1∆) 3.06 ± 0.053; (ubr1∆) 3.2 ± 0.067.

Consider REDMPFTAEGIVPDLII [RPB2], for which the protein stability index by setting is: (doa10∆) 2.49 ± 0.092; (pdr5∆) 3.42 ± 0.15; (san1∆) 3.1 ± 0.093; (ubr1∆) 2.79 ± 0.11.

Take REGRHSGYGKRKGTREA [RPL19A]: the protein stability index stood at 3.21 ± 0.27 (pdr5∆) and 3.52 ± 0.25 (ubr1∆).

On to REILCYSKDAKEIYYTP [FAS2], for which the protein stability index worked out at 2.679 ± 0.024 (doa10∆), 2.821 ± 0.025 (pdr5∆), 2.701 ± 0.025 (san1∆) and 2.71 ± 0.019 (ubr1∆).

Turning to RELLVEGYGLRDVMCTD [RPO31], the protein stability index is, setting by setting: (doa10∆) 2.36 ± 0.063; (pdr5∆) 2.57 ± 0.063; (san1∆) 2.77 ± 0.066; (ubr1∆) 2.95 ± 0.056.

For the sequence RERDITSLFHKFILSGF [RRI2], the protein stability index is, setting by setting: (doa10∆) 1.71 ± 0.048; (pdr5∆) 2.07 ± 0.045; (san1∆) 2.23 ± 0.063; (ubr1∆) 2.09 ± 0.049.

As to RERQVNEKLADLGLEKE [RPC53], the protein stability index (doa10∆) turned out to be 3.2 ± 0.14, the protein stability index (pdr5∆) was found to be 3.4 ± 0.16, the protein stability index (san1∆) was determined as 3.06 ± 0.18 and the protein stability index (ubr1∆) was 3.2 ± 0.24.

Regarding RFMRFLADRDEFIQDSA [ECM29], the protein stability index was found to be 1.87 ± 0.052 (doa10∆), 1.23 ± 0.042 (pdr5∆), 1.21 ± 0.094 (san1∆) and 2.26 ± 0.029 (ubr1∆).

Take RFPETMDETQTRAKIGG [RPO21]: the protein stability index reads like this: (doa10∆) 3.17 ± 0.26; (san1∆) 2.69 ± 0.24; (ubr1∆) 3.42 ± 0.13.

On to RGFIKSEGSGSSLVQKG [RPC53], for which the protein stability index was 3.37 ± 0.1 (doa10∆), 3.34 ± 0.09 (pdr5∆), 3.31 ± 0.076 (san1∆) and 3.14 ± 0.057 (ubr1∆).

Regarding RGFKVGLVCADTFRAGA [SRP54], the protein stability index by setting is: (doa10∆) 2.19 ± 0.22; (pdr5∆) 2.25 ± 0.081; (ubr1∆) 2.23 ± 0.11.

Regarding RGIPRLSEDELRELDVE [SMC4], the protein stability index (doa10∆) is 3.44 ± 0.14, the protein stability index (pdr5∆) is 3.68 ± 0.21, the protein stability index (san1∆) came out at 3.36 ± 0.14 and the protein stability index (ubr1∆) is 3.57 ± 0.11.

RGMLGLLEPPAKELQGI [RPO31] came in with a protein stability index (doa10∆) of 2.08 ± 0.18, a protein stability index (pdr5∆) of 1.72 ± 0.18, a protein stability index (san1∆) of 3.28 ± 0.096 and a protein stability index (ubr1∆) of 3.23 ± 0.16.

Turning to RGNKVNKQIEILTDLVN [ITC1], the protein stability index worked out at 2.83 ± 0.11 (doa10∆), 2.75 ± 0.098 (pdr5∆), 2.71 ± 0.11 (san1∆) and 2.97 ± 0.13 (ubr1∆).

Take RGYFITQEEVELPLEDF [RPB5]: the protein stability index by setting is: (doa10∆) 3.46 ± 0.19; (pdr5∆) 3.01 ± 0.16; (san1∆) 3.28 ± 0.15; (ubr1∆) 3.14 ± 0.086.

RHFGMGPHKGKAPRILS [RPL18A]: the protein stability index runs as follows: (doa10∆) 2.57 ± 0.14; (pdr5∆) 2.52 ± 0.079; (san1∆) 3.09 ± 0.13; (ubr1∆) 2.73 ± 0.1.

Regarding RHHRKTEKEEDAELMAD [ISW2], the protein stability index (doa10∆) amounted to 3.5 ± 0.13, the protein stability index (pdr5∆) is 3.31 ± 0.11, the protein stability index (san1∆) is 3.15 ± 0.091 and the protein stability index (ubr1∆) came to 3.32 ± 0.089.

With RHLPMYTEFIDSFIEKI [ITC1], the protein stability index came to 2.4 ± 0.097 (doa10∆), 2.69 ± 0.075 (pdr5∆), 2.85 ± 0.11 (san1∆) and 3 ± 0.066 (ubr1∆).

Consider RIAVLHQKTKTLASLSI [YGL172W/NUP49], for which the protein stability index worked out at 2.31 ± 0.081 (doa10∆), 2.25 ± 0.062 (pdr5∆), 2.26 ± 0.07 (san1∆) and 2.75 ± 0.066 (ubr1∆).

In the case of RIDAFNALEHKYFTESD [SSN3], the protein stability index (doa10∆) was found to be 2.72 ± 0.055, the protein stability index (pdr5∆) turned out to be 3 ± 0.046, the protein stability index (san1∆) is 2.95 ± 0.05 and the protein stability index (ubr1∆) came to 3.05 ± 0.052.

As for RIIRKKIFIAVVWYQRL [RRI2], the protein stability index is, setting by setting: (doa10∆) 1.28 ± 0.042; (pdr5∆) 1.27 ± 0.036; (san1∆) 1.27 ± 0.084; (ubr1∆) 1.25 ± 0.034.

Turning to RILQQLKLDKIIHVLTT [RGR1], the protein stability index reads like this: (doa10∆) 1.64 ± 0.068; (pdr5∆) 1.21 ± 0.053; (san1∆) 1.72 ± 0.15; (ubr1∆) 2.22 ± 0.073.

Take RKASCIWLLSYIQYLGH [ECM29]: the protein stability index (doa10∆) is 1.88 ± 0.06, the protein stability index (pdr5∆) was 2.15 ± 0.046, the protein stability index (san1∆) came out at 2.32 ± 0.054 and the protein stability index (ubr1∆) was 1.96 ± 0.036.

With RKCETQKQWDDIAFVLN [YCS4], the protein stability index reads like this: (doa10∆) 2.96 ± 0.076; (pdr5∆) 3.01 ± 0.076; (san1∆) 2.7 ± 0.12; (ubr1∆) 3.13 ± 0.078.

Consider RKCQFRTPDSISVNSSS [POP1], for which the protein stability index is, setting by setting: (doa10∆) 2.44 ± 0.074; (pdr5∆) 2.52 ± 0.073; (san1∆) 2.64 ± 0.056; (ubr1∆) 2.37 ± 0.062.
